Data on 39 sequences can be found in the supplement of paper PMC7877785.

The nature of this series: self-splicing fitness, log relative to wild type (ln ratio); higher = more splicing; Tetrahymena group I intron in knt gene, E. coli kanamycin selection, DiMSum; sequences stand for … in CUCUCU…GGAGGGAAAAGUUAUCAGGCAUGCACCUGGUAGCUAGUCUUUAAACCAAUAGAUUGCAUCGGUUUAAAAGGCAAGACCGUCAAAUUGCGGGAAAGGGGUCAACAGCCGUUCAGUACCAAGUCUCAGGGGAAACUUUGAGAUGGCCUUGCAAAGGGUAUGGUAAUAAGCUGACGGACAUGGUCCUAACCACGCAGCCAAGUCCUAAGUCAACAGAUCUUCUGUUGAUAUGGAUGCAGUUCACAGACUAAAUGUCGGUCGGGGAAGAUGUAUUCUUCUCAUAAGAUAUAGUCGGACCUCUCCUUAAUGGGAGCUAGCGGAUGAAGUGAUGCAACACUGGAGCCGCUGGGAACUAAUUUGUAUGCGAAAGUAUAUUGAUUAGUUUUGGAGUACUCGUGGUCG
Summed up:
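DiMSum derived fitness as the error-weighted combination of fold changes across replicates, kanamycin versus no kanamycin, normalised to wild type. E. coli BL21(DE3) held the library, which randomised all eight P1ex-region intron nucleotides within the knt kanamycin-resistance gene on pET-22b(+). Six replicate transformations grew overnight at 37°C or 30°C on LB agar with or without 25 μg/mL kanamycin, also containing 100 μg/mL carbenicillin, 50 μM IPTG and 0.2% rhamnose, and pooled colonies were amplicon-sequenced on an Illumina HiSeq 2500.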

± gives the uncertainty stated by the source.

Regarding CUUGAGCAAUAUUACGUCAA, the “self-splicing fitness (ln)” value is, setting by setting: (30 °C) -3.45 ± 0.21; (37 °C) -2.19 ± 0.23. Turning to UAGCAGCAAUAUUACGUGCA, the “self-splicing fitness (ln)” value was -0.411 ± 0.082 (30 °C) and -0.287 ± 0.086 (37 °C). Regarding GAGUAGCAAUAUUACGACAA, the “self-splicing fitness (ln)” value reads like this: (30 °C) -0.891 ± 0.12; (37 °C) -0.0944 ± 0.12. Taken in the same sequence, the figures for UCCUAGCAAUAUUACGCGAA were -2.24 ± 0.22 and -1.67 ± 0.17. On to AUGUAGCAAUAUUACGUUAC, for which the “self-splicing fitness (ln)” value was -4.22 ± 0.39 (30 °C) and -0.607 ± 0.2 (37 °C). As to CGGGAGCAAUAUUACGAUAG, the “self-splicing fitness (ln)” value (37 °C) is -1.97 ± 0.37. In the case of CCGCAGCAAUAUUACGUUUC, the “self-splicing fitness (ln)” value runs as follows: (30 °C) -3.08 ± 0.31; (37 °C) -2.93 ± 0.29. Taken in the same sequence, the figures for AAACAGCAAUAUUACGGGGA were -2.79 ± 0.1 and -1.63 ± 0.081.

In the case of GGUGAGCAAUAUUACGAAUA, the “self-splicing fitness (ln)” value (30 °C) is -2.09 ± 0.33.

For the sequence UGCGAGCAAUAUUACGGUGA, the “self-splicing fitness (ln)” value is, setting by setting: (30 °C) -2.28 ± 0.18; (37 °C) -1.49 ± 0.16. UGACAGCAAUAUUACGAGCA: the “self-splicing fitness (ln)” value runs as follows: (30 °C) -0.681 ± 0.051; (37 °C) 0.236 ± 0.064. Regarding GCCUAGCAAUAUUACGUAAA, the “self-splicing fitness (ln)” value runs as follows: (30 °C) -1.1 ± 0.076; (37 °C) -0.594 ± 0.093.

Regarding UCGAAGCAAUAUUACGUCUG, the “self-splicing fitness (ln)” value runs as follows: (30 °C) -0.0903 ± 0.069; (37 °C) -0.194 ± 0.077. Turning to GUGUAGCAAUAUUACGUUGU, the “self-splicing fitness (ln)” value was -3.02 ± 0.28 (30 °C) and -2.17 ± 0.21 (37 °C).

Consider CUUCAGCAAUAUUACGGCUU, for which the “self-splicing fitness (ln)” value by setting is: (30 °C) -3.25 ± 0.16; (37 °C) -3.2 ± 0.26. Take CGAGAGCAAUAUUACGGAUC: the “self-splicing fitness (ln)” value (30 °C) is -3.76 ± 0.38 and the “self-splicing fitness (ln)” value (37 °C) is -1.51 ± 0.28. Regarding UUCUAGCAAUAUUACGCAGC, the “self-splicing fitness (ln)” value (37 °C) is -0.431 ± 0.2. In the case of UGGCAGCAAUAUUACGCCAG, the “self-splicing fitness (ln)” value (30 °C) was -1.46 ± 0.14 and the “self-splicing fitness (ln)” value (37 °C) was -1.59 ± 0.21. In the case of GACUAGCAAUAUUACGCGAC, the “self-splicing fitness (ln)” value is, setting by setting: (30 °C) -1.59 ± 0.28; (37 °C) -0.817 ± 0.27. Taken in the same sequence, the figures for CAUUAGCAAUAUUACGGAGU were -3.87 ± 0.19 and -2.7 ± 0.2. Turning to GAGUAGCAAUAUUACGCUCA, the “self-splicing fitness (ln)” value (30 °C) was -0.591 ± 0.15 and the “self-splicing fitness (ln)” value (37 °C) is -0.761 ± 0.15. The corresponding values for GUGGAGCAAUAUUACGUCAA are -1.28 ± 0.33 and -1.78 ± 0.32. For the sequence GUACAGCAAUAUUACGGAAA, the “self-splicing fitness (ln)” value reads like this: (30 °C) -2.77 ± 0.22; (37 °C) -2.72 ± 0.25.

On to UUGGAGCAAUAUUACGUUAG, for which the “self-splicing fitness (ln)” value (30 °C) is -3.62 ± 0.2 and the “self-splicing fitness (ln)” value (37 °C) is -1.49 ± 0.22. Take ACAUAGCAAUAUUACGGGAA: the “self-splicing fitness (ln)” value runs as follows: (30 °C) -2.36 ± 0.11; (37 °C) -1.7 ± 0.13. Taken in the same sequence, the figures for GGCCAGCAAUAUUACGGUUC were -3.72 ± 0.17 and -0.463 ± 0.12. Turning to GCACAGCAAUAUUACGCACA, the “self-splicing fitness (ln)” value reads like this: (30 °C) -1.09 ± 0.092; (37 °C) -0.164 ± 0.1. With GACCAGCAAUAUUACGGAUC, the “self-splicing fitness (ln)” value runs as follows: (30 °C) -1.45 ± 0.095; (37 °C) -0.489 ± 0.12. In the case of CCCCAGCAAUAUUACGACAC, the “self-splicing fitness (ln)” value reads like this: (30 °C) -3.97 ± 0.43; (37 °C) -2.41 ± 0.36. Consider UGCCAGCAAUAUUACGUGGG, for which the “self-splicing fitness (ln)” value (30 °C) was -3.88 ± 0.13 and the “self-splicing fitness (ln)” value (37 °C) was -2.74 ± 0.14. In the case of CACCAGCAAUAUUACGGACG, the “self-splicing fitness (ln)” value is, setting by setting: (30 °C) -0.37 ± 0.058; (37 °C) 0.374 ± 0.08.

Turning to GGGGAGCAAUAUUACGCUUU, the “self-splicing fitness (ln)” value (30 °C) is -2.18 ± 0.27. For the sequence ACCAAGCAAUAUUACGAUUC, the “self-splicing fitness (ln)” value is, setting by setting: (30 °C) -1.48 ± 0.1; (37 °C) -1.04 ± 0.14. For the sequence GUCCAGCAAUAUUACGAUAA, the “self-splicing fitness (ln)” value is, setting by setting: (30 °C) -1.3 ± 0.087; (37 °C) -0.506 ± 0.11. In the case of UAUAAGCAAUAUUACGGCUA, the “self-splicing fitness (ln)” value was -0.234 ± 0.092 (30 °C) and -0.126 ± 0.13 (37 °C).

Regarding GCACAGCAAUAUUACGGUGU, the “self-splicing fitness (ln)” value (30 °C) was -3.58 ± 0.14 and the “self-splicing fitness (ln)” value (37 °C) is -3.45 ± 0.29. For the sequence GCCGAGCAAUAUUACGGGCG, the “self-splicing fitness (ln)” value (30 °C) was -1.18 ± 0.17 and the “self-splicing fitness (ln)” value (37 °C) was -0.688 ± 0.18. The corresponding values for GGUUAGCAAUAUUACGAUAA are -0.985 ± 0.12 and -0.35 ± 0.14. In the case of GGUUAGCAAUAUUACGUAGU, the “self-splicing fitness (ln)” value is, setting by setting: (30 °C) -1.03 ± 0.097; (37 °C) -0.417 ± 0.12.
